Measurements reported in the supplement of paper PMC6755084.

Tested on: F1*sub RNA substrate (template-directed ligation)
Assay: fraction ligated after 30 min (ligated reads / total reads); higher = more ligase activity; sequences stand for … in GAGACCGCAACTGAAAAGTTGT…AGTTCTGCACGTAGAAGCAAAAGGC
Conditions: 42 °C
Summary of the method: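 Oligo-pool templates of ligase ribozyme variants were PCR-amplified, T7-transcribed and gel-purified. Ligated and unligated bands were gel-separated, reverse transcribed with barcoded primers, and MiSeq-sequenced; core bases were filtered at quality ≥20. Fraction ligated per variant was ligated reads over total reads.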

Sequence: TATCCTTGTCGTAAGACCTTTGGATGGTTGA [3d1087]
- fraction ligated: 0.0339

Sequence: TATCCTTGTCGTAAGACCTTTGGTGGGTTGA [3d1085]
- fraction ligated: 0.212

Sequence: TATCCTTGTCGTAAGACTTTGGATGGGTTGA [3d1065]
- fraction ligated: 0.76

Sequence: TATCCTTGTCGTAAGCACTTGGATGGGTTGA [3d1068]
- fraction ligated: 0.685

Sequence: TATCCTTGTCGTAAGCACTTTGATGGGTTGA [3d1069]
- fraction ligated: 0.754

Sequence: TATCCTTGTCGTAAGCACTTTGGAGGGTTGA [3d1071]
- fraction ligated: 0.0111

Sequence: TATCCTTGTCGTAAGCACTTTGGATGGGTTA [3d1073]
- fraction ligated: 0.381

Sequence: TATCCTTGTCGTAAGCACTTTGGATGGGTTG [3d1074]
- fraction ligated: 0.768

Sequence: TATCCTTGTCGTAAGCACTTTGGATGGTTGA [3d1072]
- fraction ligated: 0.0464

Sequence: TATCCTTGTCGTAAGCACTTTGGTGGGTTGA [3d1070]
- fraction ligated: 0.0868

Sequence: TATCCTTGTCGTAAGCATTTGGATGGGTTGA [3d1067]
- fraction ligated: 0.763

Sequence: TATCCTTGTCGTAAGCCTTTGGATGGGTTGA [3d1066]
- fraction ligated: 0.75

Sequence: TATCCTTGTCGTAGAACTTTGGATGGGTTGA [3d1045]
- fraction ligated: 0.792

Sequence: TATCCTTGTCGTAGACACTTGGATGGGTTGA [3d1048]
- fraction ligated: 0.782

Sequence: TATCCTTGTCGTAGACACTTTGATGGGTTGA [3d1049]
- fraction ligated: 0.804

Sequence: TATCCTTGTCGTAGACACTTTGGAGGGTTGA [3d1051]
- fraction ligated: 0.00532

Sequence: TATCCTTGTCGTAGACACTTTGGATGGGTTA [3d1053]
- fraction ligated: 0.398

Sequence: TATCCTTGTCGTAGACACTTTGGATGGGTTG [3d1054]
- fraction ligated: 0.786

Sequence: TATCCTTGTCGTAGACACTTTGGATGGGTTGA [2d96]
- fraction ligated: 0.79

Sequence: TATCCTTGTCGTAGACACTTTGGATGGTTGA [3d1052]
- fraction ligated: 0.0426

Sequence: TATCCTTGTCGTAGACACTTTGGTGGGTTGA [3d1050]
- fraction ligated: 0.26

Sequence: TATCCTTGTCGTAGACATTTGGATGGGTTGA [3d1047]
- fraction ligated: 0.768

Sequence: TATCCTTGTCGTAGACCTTTGGATGGGTTGA [3d1046]
- fraction ligated: 0.773

Sequence: TATCCTTGTCGTAGCACTTTGGATGGGTTGA [3d1044]
- fraction ligated: 0.774

Sequence: TATCCTTGTCGTGACACTTTGGATGGGTTGA [3d1042]
- fraction ligated: 0.798

Sequence: TATCCTTGTCTAAACACTTTGGATGGGTTGA [3d1017]
- fraction ligated: 0.793

Sequence: TATCCTTGTCTAAGAACTTTGGATGGGTTGA [3d1019]
- fraction ligated: 0.764

Sequence: TATCCTTGTCTAAGACACTTGGATGGGTTGA [3d1022]
- fraction ligated: 0.764

Sequence: TATCCTTGTCTAAGACACTTTGATGGGTTGA [3d1023]
- fraction ligated: 0.748

Sequence: TATCCTTGTCTAAGACACTTTGGAGGGTTGA [3d1025]
- fraction ligated: 0.0172

Sequence: TATCCTTGTCTAAGACACTTTGGATGGGTTA [3d1027]
- fraction ligated: 0.394

Sequence: TATCCTTGTCTAAGACACTTTGGATGGGTTG [3d1028]
- fraction ligated: 0.773

Sequence: TATCCTTGTCTAAGACACTTTGGATGGGTTGA [2d94]
- fraction ligated: 0.798

Sequence: TATCCTTGTCTAAGACACTTTGGATGGTTGA [3d1026]
- fraction ligated: 0.047

Sequence: TATCCTTGTCTAAGACACTTTGGTGGGTTGA [3d1024]
- fraction ligated: 0.19

Sequence: TATCCTTGTCTAAGACATTTGGATGGGTTGA [3d1021]
- fraction ligated: 0.793

Sequence: TATCCTTGTCTAAGACCTTTGGATGGGTTGA [3d1020]
- fraction ligated: 0.786

Sequence: TATCCTTGTCTAAGCACTTTGGATGGGTTGA [3d1018]
- fraction ligated: 0.765

Sequence: TATCCTTGTCTAGACACTTTGGATGGGTTGA [3d1016]
- fraction ligated: 0.763

Sequence: TATCCTTGTGAAGACACTTTGGATGGGTTGA [3d1001]
- fraction ligated: 0.792

Sequence: TATCCTTGTGTAAACACTTTGGATGGGTTGA [3d1003]
- fraction ligated: 0.8

Sequence: TATCCTTGTGTAAGAACTTTGGATGGGTTGA [3d1005]
- fraction ligated: 0.818

Sequence: TATCCTTGTGTAAGACACTTGGATGGGTTGA [3d1008]
- fraction ligated: 0.367

Sequence: TATCCTTGTGTAAGACACTTTGATGGGTTGA [3d1009]
- fraction ligated: 0.799

Sequence: TATCCTTGTGTAAGACACTTTGGAGGGTTGA [3d1011]
- fraction ligated: 0.0114

Sequence: TATCCTTGTGTAAGACACTTTGGATGGGTTA [3d1013]
- fraction ligated: 0.406

Sequence: TATCCTTGTGTAAGACACTTTGGATGGGTTG [3d1014]
- fraction ligated: 0.745

Sequence: TATCCTTGTGTAAGACACTTTGGATGGGTTGA [2d93]
- fraction ligated: 0.792

Sequence: TATCCTTGTGTAAGACACTTTGGATGGTTGA [3d1012]
- fraction ligated: 0.0285

Sequence: TATCCTTGTGTAAGACACTTTGGTGGGTTGA [3d1010]
- fraction ligated: 0.062

Sequence: TATCCTTGTGTAAGACATTTGGATGGGTTGA [3d1007]
- fraction ligated: 0.796

Sequence: TATCCTTGTGTAAGACCTTTGGATGGGTTGA [3d1006]
- fraction ligated: 0.801

Sequence: TATCCTTGTGTAAGCACTTTGGATGGGTTGA [3d1004]
- fraction ligated: 0.788

Sequence: TATCCTTGTGTAGACACTTTGGATGGGTTGA [3d1002]
- fraction ligated: 0.808

Sequence: TATCCTTGTTAAGACACTTTGGATGGGTTGA [3d1000]
- fraction ligated: 0.793

Sequence: TATCCTTTCGAAGACACTTTGGATGGGTTGA [3d970]
- fraction ligated: 0.8

Sequence: TATCCTTTCGTAAACACTTTGGATGGGTTGA [3d972]
- fraction ligated: 0.795

Sequence: TATCCTTTCGTAAGAACTTTGGATGGGTTGA [3d974]
- fraction ligated: 0.797

Sequence: TATCCTTTCGTAAGACACTTGGATGGGTTGA [3d977]
- fraction ligated: 0.76

Sequence: TATCCTTTCGTAAGACACTTTGATGGGTTGA [3d978]
- fraction ligated: 0.77

Sequence: TATCCTTTCGTAAGACACTTTGGAGGGTTGA [3d980]
- fraction ligated: 0.0203

Sequence: TATCCTTTCGTAAGACACTTTGGATGGGTTA [3d982]
- fraction ligated: 0.371

Sequence: TATCCTTTCGTAAGACACTTTGGATGGGTTG [3d983]
- fraction ligated: 0.766

Sequence: TATCCTTTCGTAAGACACTTTGGATGGGTTGA [2d91]
- fraction ligated: 0.786

Sequence: TATCCTTTCGTAAGACACTTTGGATGGTTGA [3d981]
- fraction ligated: 0.0298

Sequence: TATCCTTTCGTAAGACACTTTGGTGGGTTGA [3d979]
- fraction ligated: 0.0729

Sequence: TATCCTTTCGTAAGACATTTGGATGGGTTGA [3d976]
- fraction ligated: 0.787

Sequence: TATCCTTTCGTAAGACCTTTGGATGGGTTGA [3d975]
- fraction ligated: 0.771

Sequence: TATCCTTTCGTAAGCACTTTGGATGGGTTGA [3d973]
- fraction ligated: 0.77

Sequence: TATCCTTTCGTAGACACTTTGGATGGGTTGA [3d971]
- fraction ligated: 0.766

Sequence: TATCCTTTCTAAGACACTTTGGATGGGTTGA [3d969]
- fraction ligated: 0.796

Sequence: TATCCTTTGTAAGACACTTTGGATGGGTTGA [3d968]
- fraction ligated: 0.772

Sequence: TATCTGTCGTAAGACACTTTGGATGGGTTGA [3d739]
- fraction ligated: 0.775

Sequence: TATCTTGCGTAAGACACTTTGGATGGGTTGA [3d741]
- fraction ligated: 0.828

Sequence: TATCTTGTCGAAGACACTTTGGATGGGTTGA [3d744]
- fraction ligated: 0.755

Sequence: TATCTTGTCGTAAACACTTTGGATGGGTTGA [3d746]
- fraction ligated: 0.76

Sequence: TATCTTGTCGTAAGAACTTTGGATGGGTTGA [3d748]
- fraction ligated: 0.841

Sequence: TATCTTGTCGTAAGACACTTGGATGGGTTGA [3d751]
- fraction ligated: 0.776

Sequence: TATCTTGTCGTAAGACACTTTGATGGGTTGA [3d752]
- fraction ligated: 0.763

Sequence: TATCTTGTCGTAAGACACTTTGGAGGGTTGA [3d754]
- fraction ligated: 0.0612

Sequence: TATCTTGTCGTAAGACACTTTGGATGGGTTA [3d756]
- fraction ligated: 0.722

Sequence: TATCTTGTCGTAAGACACTTTGGATGGGTTG [3d757]
- fraction ligated: 0.779

Sequence: TATCTTGTCGTAAGACACTTTGGATGGGTTGA [2d69]
- fraction ligated: 0.791
